According to patent US20210101947A1 (UNIVERSITY OF SASKATCHEWAN, published 2021):
Primed or numbered codes have the meaning given here. No end group written: not given here. FITC′ = not defined here

Target: T1, TAT2 cell penetrating peptide
T1 construct: Synthesized; two copies of a 9 amino acid TAT peptide
T1 peptide: RKKRRQRRRRKKRRQRRR
Assay: peptides mixed; uptake into MDA-MB-231 cells seen by fluorescence microscopy
Procedure: B. Using 0.1 mg/ml C43-4-FITC, weak toxicity is only observed when combined with TAT2, which is worsened with DOX. An equal number of cells were treated with TAT2 and C43-4-FITC alone or in complex, +/−0.5 uM DOX. 24 hours later, 4 random fields of cells were counted and combined. C. MDA-MB-231 cells were treated with 0.001 mg/ml peptide/TAT2 complex for 12 hours, or left untreated. Lysates were prepared and assessed with the antibodies shown. Cyclin B—APC substrate; the PARP […] cleavage fragment is an early sign of apoptosis; induction of total PARP indicates DNA damage; TFPI1 is a nucleolar MDR marker. D. Mice growing MDA-MB-231 cells stably expressing pcDNA-C43-4, injected or left untreated, with the C43-4-FITC/TAT2 complex (n=2 each). 100 ul of 0.01 mg/ml C43-4-FITC peptide was mixed with 25 ul of 1 mg/ml TAT2. The entire 125 ul was given to the mouse using an intraperitoneal (IP) injection. 1 injection/mouse was given in this experiment.
The 20 amino acid C43-4 peptide was synthesized with a C-terminal FITC epitope to allow visualization of the peptide within the cell using fluorescent microscopy. The TAT2 cell penetrating peptide, encoding 2 copies of a 9 amino acid peptide ([…]; SEQ ID NO: 26) was also synthesized. […] After 24 hours, and prior to imaging, 4 independent microscope fields were counted for each sample and added together to get a total cell number. […]

B1: C43-4-FITC (peptide)
peptide: NGSSHNDLRVRRLTLISRLC-{FITC′}
notes: The synthesized 20 amino acid C43-4 peptide with a C-terminal FITC; also called C43-4-FITC peptide
binding result: binds
